Experimental findings from IntAct's records for PubMed 23685356 are described below.

B1: Homeobox-containing protein 1 (Homo sapiens), Q6NT76 (parent)
chain: MLSSFPVVLLETMSHYTDEPRFTIEQIDLLQRLRRTGMTKHEILHALETLDRLDQEHSDKFGRRSSYGGSSYGNSTNNVPASSSTATASTQTQHSGMSPSPSNSYDTSPQPCTTNQNGRENNERLSTSNGKMSPTRYHANSMGQRSYSFEASEEDLDVDDKVEELMRRDSSVIKEEIKAFLANRRISQAVVAQVTGISQSRISHWLLQQGSDLSEQKKRAFYRWYQLEKTNPGATLSMRPAPIPIEDPEWRQTPPPVSATSGTFRLRRGSRFTWRKECLAVMESYFNENQYPDEAKREEIANACNAVIQKPGKKLSDLERVTSLKVYNWFANRRKEIKRRANIEAAILESHGIDVQSPGGHSNSDDVDGNDYSEQDDSTSHSDHQDPISLAVEMAAVNHTILALARQGANEIKTEALDDD
partner: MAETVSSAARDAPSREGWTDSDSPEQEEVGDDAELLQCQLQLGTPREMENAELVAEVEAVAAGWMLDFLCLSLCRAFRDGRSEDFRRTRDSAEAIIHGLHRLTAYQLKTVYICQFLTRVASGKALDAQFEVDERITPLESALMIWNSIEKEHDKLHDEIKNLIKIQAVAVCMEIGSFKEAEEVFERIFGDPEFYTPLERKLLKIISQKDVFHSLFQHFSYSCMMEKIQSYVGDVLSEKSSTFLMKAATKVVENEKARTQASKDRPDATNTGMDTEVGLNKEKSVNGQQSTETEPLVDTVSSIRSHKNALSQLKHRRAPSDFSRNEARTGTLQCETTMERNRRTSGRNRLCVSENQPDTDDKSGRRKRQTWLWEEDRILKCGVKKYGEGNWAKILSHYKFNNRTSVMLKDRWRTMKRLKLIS

This assay covers variants of B1. The following applies: with terf1_mouse Terf1, P70371.
Consider R339A, for which the “effect of a mutation on the interaction” value is recorded as “disrupting interaction”.
